From patent US20030092616A1, “STAT6 activation gene” (priority 2001, published 2003) come the findings set out here.

First the molecules themselves.
B1: 349 (nucleic acid, listed as Homo sapiens)
chain: CCCCCCCGAGCGCCGCTCCGGCTGCACCGCGCTCGCTCCGAGTTTCAGGCTCGTGCTAAGCTAGCGCCGTCGTCGTCTCCCTTCAGTCGCCATCATGATTATCTACCGGGACCTCATCAGCCACGATGAGATGTTCTCCGACATCTACAAGATCCGGGAGATCGCGGACGGGTTGTGCCTGGAGGTGGAGGGGAAGATGGTCAGTAGGACAGAAGGTAACATTGATGACTCGCTCATTGGTGGAAATGCCTCCGCTGAAGGCCCCGAGGGCGAAGGTACCGAAAGCACAGTAATCACTGGTGTCGATATTGTCATGAACCATCACCTGCAGGAAACAAGTTTCACAAAAGAAGCCTACAAGAAGTACATCAAAGATTACATGAAATCAATCAAAGGGAAACTTGAAGAACAGAGACCAGAAAGAGTAAAACCTTTTATGACAGGGGCTGCAGAACAAATCAAGCACATCCTTGCTAATTTCAAAAACTACCAGTTCTTTATTGGTGAAAACATGAATCCAGATGGCATGGTTGCTCTATTGGACTACCGTGAGGATGGTGTGACCCCATATATGATTTTCTTTAAGGATGGTTTAGAAATGGAAAAATGTTAACAAATGTGGCAATTATTTTGGATCTATCACCTGTCATCATAACTGGCTTCTGCTTGTCATCCACACAACACCAGGACTTAAGACAAATGGGACTGATGTCATCTTGAGCTCTTCATTTATTTTGACTGTGATTTATTTGGAGTGGAGGCATTGTTTTTAAGAAAAACATGTCATGTAGGTTGTCTAAAAATAAAATGCATTTAAACTCATTTGAGAG
modifications: CDS (95)..(610)
B2: 345 (nucleic acid, listed as Homo sapiens)
chain: CCAGCCAACGAGCGGAAAATGGCAGACAATTTTTCGCTCCATGATGCGTTATCTGGGTCTGGAAACCCAAACCCTCAAGGATGGCCTGGCGCATGGGGGAACCAGCCTGCTGGGGCAGGGGGCTACCCAGGGGCTTCCTATCCTGGGGCCTACCCCGGGCAGGCACCCCCAGGGGCTTATCCTGGACAGGCACCTCCAGGCGCCTACCATGGAGCACCTGGAGCTTATCCCGGAGCACCTGCACCTGGAGTCTACCCAGGGCCACCCAGCGGCCCTGGGGCCTACCCATCTTCTGGACAGCCAAGTGCCCCCGGAGCCTACCCTGCCACTGGCCCCTATGGCGCCCCTGCTGGGCCACTGATTGTGCCTTATAACCTGCCTTTGCCTGGGGGAGTGGTGCCTCGCATGCTGATAACAATTCTGGGCACGGTGAAGCCCAATGCAAACAGAATTGCTTTAGATTTCCAAAGAGGGAATGATGTTGCCTTCCACTTTAACCCACGCTTCAATGAGAACAACAGGAGAGTCATTGTTTGCAATACAAAGCTGGATAATAACTGGGGAAGGGAAGAAAGACAGTCGGTTTTCCCATTTGAAAGTGGGAAACCATTCAAAATACAAGTACTGGTTGAACCTGACCACTTCAAGGTTGCAGTGAATGATGCTCACTTGTTGCAGTACAATCATCGGGTTAAAAAACTCAATGAAATCAGCAAACTGGGAATTTCTGGTGACATAGACCTCACCAGTGCTTCATATACCATGATATAATCTGAAAGGGGCAGATTAAAAAAAAAAAAAAAGAATCTAAACCTTACATGTGTAAAGGTTTCATGTTCACTGTGAGTGAAAATTTTTACATTCATCAATATCCCTCTTGTAAGTCATCTACTTAATAAATATTACAGTGAAAG
modifications: CDS (19)..(768)
B3: 327 (nucleic acid, listed as Homo sapiens)
chain: TGTCGACGCCGCTGCCACCGCCTGCCTGAGAGAAGTCGTCGCGGCCGACCCCGTCGCCTCCGCCGGCTACCATGTCCGCCCAGGCGCAGATGCGGGCCCTGCTGGACCAGCTCATGGGCACGGCTCGGGACGGAGACGAAACCAGACAAAGGGTCAAGTTTACAGATGACCGTGTCTGCAAGAGTCACCTTCTGGACTGCTGCCCCCATGACATCCTGGCTGGGACGCGCATGGATTTAGGAGAATGTACCAAAATCCACGACTTGGCCCTCCGAGCAGATTATGAGATTGCAAGTAAAGAAAGAGACCTGTTTTTTGAATTAGATGCAATGGATCACTTGGAGTCCTTTATTGCTGAATGTGATCGGAGAACTGAGCTCGCCAAGAAGCGGCTGGCAGAAACACAGGAGGAAATCAGTGCGGAAGTTTCTGCAAAGGCAGAAAAAGTACATGAGTTAAATGAAGAAATAGGAAAACTCCTTGCTAAAGCCGAACAGCTAGGGGCTGAAGGTAATGTGGATGAATCCCAGAAGATTCTTATGGAAGTGGAAAAAGTTCGTGCGAAGAAAAAAGAAGCTGAGGAAGAATACAGAAATTCCATGCCTGCATCCAGTTTTCAGCAGCAAAAGCTGCGTGTCTGCGAGGTCTGTTCAGCCTACCTTGGTCTCCATGACAATGACCGTCGCCTGGCAGACCACTTCGGTGGCAAGTTACACTTGGGGTTCATTCAGATCCGAGAGAAGCTTGATCAGTTGAGGAAAACTGTCGCTGAAAAGCAGGAGAAGAGAAATCAGGATCGCTTGAGGAGGAGAGAGGAGAGGGAACGGGAGGAGCGTCTGAGCAGGAGGTCGGGATCAAGAACCAGAGATCGCAGGAGGTCACGCTCCCGGGATCGGCGTCGGAGGCGGTCAAGATCTACCTCCCGAGAGCGACGGAAATTGTCCCGGTCCCGGTCCCGAGATAGACATCGGCGCCACCGCAGCCGTTCCCGGAGCCACAGCCGGGGACATCGTCGGGCTTCCCGGGACCGAAGTGCGAAATACAAGTAACTACTCTGACTCCTTCGGTAGCTGCAACCAGGGGTTCTCCAGAGAGCGGGCATCCAGAGAGGAGTCCTGGGAGAGCGGGCGGAGCGAGCGAGGGCCCCCGGACTGGAGGCTTGAGAGCTCCAACGGGAAGATGGCTTCACGGAGGTCAGAAGAGAAGGAGGCCGGCGAGATCTGAACCCGTCTCCCGGGTGCTGTAAATAGTCTGATAAACGTTCACACAGTCTAAAATTACCCTTTATATTTGCTGAATACAACTCATCTTTTGTAGTTTAAAATTTCTATTGTTTTGGAGCTAGCTGTGAGTTTCTAGAAGTGTACAGAGTTGCTCCTGTGTTCCCGGGTCATGTTGAGTAGGAATAAATAAATCTGATGCTGCCTCCTGAGGCTGCGGGGGGTTTCTGC
modifications: CDS (72)..(1046)
B4: 115 (nucleic acid, listed as Homo sapiens)
chain: GTTTTCCGCCGTCCGTCCGGGCGGGCGGGCGCAGAGTCCCGCGGGCGGCGCGGAAGCGGCGGCGGCGCGGCCGGGGCAGCCATGTCGCCATTGTCTGCGGCGCGGGCGGCCCTGCGGGTCTACGCGGTAGGCGCCGCGGTGATCCTGGCGCAGCTGCTGCGGCGCTGCCGCGGGGGCTTCCTGGAGCCAGTTTTCCCCCCACGACCTGACCGTGTCGCTATAGTGACGGGAGGGACAGATGGCATTGGCTATTCTACAGCGAAGCATCTGGCGAGACTTGGCATGCATGTTATCATAGCTGGAAATAATGACAGCAAAGCCAAACAAGTTGTAAGCAAAATAAAAGAAGAAACCTTGAACGACAAAGTGGAATTTTTATACTGTGACTTGGCTTCCATGACTTCCATCCGGCAGTTTGTGCAGAAGTTCAAGATGAAGAAGATTCCTCTCCATGTCCTGATCAACAATGCTGGGGTGATGATGGTCCCTCAGAGGAAAACCAGAGATGGATTCGAAGAACATTTCGGCCTGAACTACCTAGGGCACTTCCTGCTGACCAACCTTCTCTTGGATACGCTGAAAGAGTCTGGGTCCCCTGGCCACAGTGCGAGGGTGGTCACCGTCTCCTCTGCCACCCATTACGTCGCTGAGCTGAACATGGATGACCTTCAGAGCAGTGCCTGCTACTCACCCCACGCAGCCTACGCCCAGAGCAAGCTGGCCCTTGTCCTGTTCACCTACCACCTCCAGCGGCTGCTGGCGGCTGAGGGAAGCCACGTGACCGCCAACGTGGTGGACCCCGGGGTGGTCAACACGGACCTCTACAAGCACGTGTTCTGGGCCACCCGTCTGGCGAAGAAGCTTCTCGGCTGGTTGCTTTTCAAGACCCCCGATGAAGGAGCGTGGACTTCCATCTACGCAGCAGTCACCCCAGAGCTGGAAGGAGTTGGTGGCCGTTACCTATACAACGAGAAAGAGACCAAGTCCCTCCACGTCACCTACAACCAGAAACTGCAGCAGCAGCTGTGGTCTAAGAGTTGTGAGATGACTGGGGTCCTTGATGTGACCCTGTGATATCCTGTCTCAGGATAGCTGCTGCCCCAAGAAACACATTGCACCTGCCAATAGCTTGTGGGTCTGTGAAGACTGCGGTGTTTGAGTTTCTCACACCCACCTGCCCACAGGGCTCTGTCCTCTAGTTTTGAGACAGCTGCCTCAACCTCTGCAGAACTTCAAGAAGCCAAATAAACATTTTGGAGGATAATCACCCCAAGTGGTCTTCAACCATAAACTTTGTGATTCCAAAGTGCCCAGTTGTCACAGGTGCCATAAATAATTACATTTTCCAACAT
modifications: CDS (82)..(1071)
B5: 6 (nucleic acid, listed as Homo sapiens)
chain: TAAAAGAAGAGAAGAGGCTAAAGAAGAAAAGAAGAAAATCAACTTCTTCTTCAAGTGTTTCTTCTGCTGATGAATCAGTGTCTTCATCATCATCCTCTTCCTCTTCTGGTCACAAAAGGCATAAGAAACATAAGAGGAACCGTTCAGAGTCTTCTCGCAGTTCCAGAAGGCATTCATCTAGGGCATCCTCAAATCAGATAGATCAGAATAGGAAAGATGAGTGCTACCCAGTTCCAGCTAATACTTCAGCATCTTTTCTTAACCATAAACAAGAAGTGGAGAAACTACTGGGGAAGCAGGATAGGTTACAGTATGAAAAGACACAGATAAAAGAGAAAGATAGATGCCCTCTCTCTTCATCTTCACTTGAAATACCGGATGATTTTGGAGGTAGGTCTGAAGATCCAAGAGATTTTTATAACAGCTATAAAACCCAAGCAGGTAGTAGCAAAACAGAAAAGCCATATAAATCAGAAAGACATTTTTCCAGTAGAAGAAATTCCTCAGATTCCTTCTGTAGGAATTCAGAGGACAAGATTTATGGTTATAGGAGATTTGAAAAGGATATAGAGGGAAGAAAAGAGCACTATAGAAGGTGGGAACCAGGTTCTGTGAGGCATTCTACCTCACCAGCAAGCTCAGAATACTCTTGGAAGTCAGTTGAGAAATACAAAAAATACGCTCACTCTGGATCACGTGATTTCAGTAGACATGAGCAAAGATACCGTTTAAATACAAATCAAGGAGAATATGAAAGAGAGGACAATTATGGGGAGGATATCAAAACAGAGGTTCCAGAAGAAGATGCACTAAGTAGCAAAGAACACTCAGAAAGCAGTGTTAAGAAAAATTTACCTCAGAATTTACTGAATATATTTAATCAGATAGCTGAATTTGAAAAAGAAAAAGGAAATAAGTCAAAAAATTAATACACCAAGGATATCGGCACCATTACACAAAATGCCATTAAGTGAAGTTTTTGGTTGTATTAGTCATAACAGTTGAGTGCAGAAATCTCTGCTTCTAAAATTATTTGTAGAGATTACAGGAAACAAATGCTTTTAAGTAAGTTTTTCTCAAATTTTGTTTCAGTTCTAGGTCCCTTGTCACAGCTTGGTTTTTAGACTTTTTATGTATATGTTTATGTACAGTATATTACTCTTGACAGTTTGAATTTCTTCACCTAAAGATAATTCTCTGAAAGTACTGTTTCTTCATTCTATTGCGGTATATGAGAATTCCTGGGTGCATCTTATTCTGCTGTTTGAGAGAAAAATTTGTGCATTGAACACTTGGATCATTTTTATAAAAATTAATTTCATTTTCTTTTCTGTTAAATTAAAAATCGTCAGCTTTTGAAAGAT
modifications: CDS (379)..(567)

The subject of the series is STAT6. Nature of the series: Screening of full-length cDNA clones for promotion of STAT6 activation (luciferase reporter N4×8-luc). It is filed as cell-based. Conditions: NIH3T3 cells cotransfected with N4×8-luc reporter and cDNA plasmid; 48 h culture, then mouse IL-4 0.5 ng/ml for 6 h. An outline of the steps:
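NIH3T3 cells cotransfected with STAT6-responsive N4×8-luc reporter (100 ng) and full-length cDNA, cultured 48 h, then given mouse IL-4 at 0.5 ng/ml final for 6 h. Luciferase activity compared with reporter plus null-vector control.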
For orientation: In a reporter assay the amount or activity of a reporter protein is the signal.
Consider B1, for which the “Activity = (luciferase activity of the gene of each SEQ ID NO:)/(luciferase activity of pME18S-FL3)” value is recorded as 24.3.

Consider B2, for which the “Activity = (luciferase activity of the gene of each SEQ ID NO:)/(luciferase activity of pME18S-FL3)” value worked out at 3.7.

Turning to B3, the “Activity = (luciferase activity of the gene of each SEQ ID NO:)/(luciferase activity of pME18S-FL3)” value is 5.3.

Regarding B4, the “Activity = (luciferase activity of the gene of each SEQ ID NO:)/(luciferase activity of pME18S-FL3)” value is 8.6.

B5: the “Activity = (luciferase activity of the gene of each SEQ ID NO:)/(luciferase activity of pME18S-FL3)” value is listed as 127.5.
